Here are results for 125 sequences from the supplement of paper PMC9112550, “Optimization of the antimicrobial peptide Bac7 by deep mutational scanning” (BMC Biology, 2022).

This series deals with Escherichia coli TOP10. Put plainly: shrunken log2 fold change of peptide-encoding DNA abundance (4.5 h post-induction vs induction); higher = less antimicrobial activity (less host growth inhibition). The settings on record: time post-induction: 4.5 h; library: site-saturation at positions 5, 18, 19, 20.
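Further: peptides expressed intracellularly from a pBAD plasmid library in pooled LB shake-flask culture, induced with 0.3% L-arabinose, DNA abundance read by NGS, three biological replicates, DESeq2 with apeglm shrinkage.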

For RRIRYRPPRLPRPRPRPTQAPRP, the “shrunken log2 fold change” value was -0.00154. In the case of RRIRWRPPRLPRPRPRPIFIPRP it was -0.592; in that of RRIRRRPPRLPRPRPRPGRMPRP, 0.41; in that of RRIRHRPPRLPRPRPRPAGAPRP, 0.199. As for RRIRRRPPRLPRPRPRPAEAPRP, the figure is 0.148; as for RRIRSRPPRLPRPRPRPRCAPRP, 0.509. As for RRIRTRPPRLPRPRPRPWPTPRP, the figure is 0.371; as for RRIRWRPPRLPRPRPRPWYIPRP, -0.172. On to RRIRQRPPRLPRPRPRPSEGPRP, for which the “shrunken log2 fold change” value was determined as 0.0871. RRIRRRPPRLPRPRPRPYACPRP: the “shrunken log2 fold change” value is -0.207. Consider RRIRKRPPRLPRPRPRPKFCPRP, for which the “shrunken log2 fold change” value amounted to 0.0649.

With RRIRERPPRLPRPRPRPSSVPRP, the “shrunken log2 fold change” value was -0.306. In the case of RRIRFRPPRLPRPRPRPIVVPRP it was -0.0214; in that of RRIRDRPPRLPRPRPRPFKQPRP, -0.235; in that of RRIRTRPPRLPRPRPRPWEAPRP, 0.337.

Take RRIRSRPPRLPRPRPRPKYEPRP: the “shrunken log2 fold change” value was -0.147.

Regarding RRIRNRPPRLPRPRPRPGYIPRP, the “shrunken log2 fold change” value is -1.11.

RRIRERPPRLPRPRPRPNMEPRP: the “shrunken log2 fold change” value is -0.384.

As to RRIRTRPPRLPRPRPRPSFYPRP, the “shrunken log2 fold change” value is -0.343. In the case of RRIRHRPPRLPRPRPRPDPCPRP it was -0.186; in that of RRIRIRPPRLPRPRPRPSNDPRP, -0.779; in that of RRIRNRPPRLPRPRPRPSESPRP, -0.0302. RRIRWRPPRLPRPRPRPQGEPRP: the “shrunken log2 fold change” value worked out at 0.29. In the case of RRIRQRPPRLPRPRPRPCNPPRP, the “shrunken log2 fold change” value was -0.0715. As for RRIRGRPPRLPRPRPRPPSLPRP, the “shrunken log2 fold change” value was 0.477. As for RRIRCRPPRLPRPRPRPFFEPRP, the “shrunken log2 fold change” value was -0.0214.

With RRIRRRPPRLPRPRPRPKRNPRP, the “shrunken log2 fold change” value turned out to be 0.525. In the case of RRIRCRPPRLPRPRPRPHHQPRP it was -0.278. Consider RRIRARPPRLPRPRPRPQFAPRP, for which the “shrunken log2 fold change” value was found to be 0.402.

As for RRIRTRPPRLPRPRPRPDATPRP, the “shrunken log2 fold change” value is 0.823. As for RRIRTRPPRLPRPRPRPCGYPRP, the figure is -0.0816; as for RRIRYRPPRLPRPRPRPYNPPRP, -0.256. As for RRIRYRPPRLPRPRPRPDYGPRP, the figure is -0.205; as for RRIRHRPPRLPRPRPRPCCNPRP, 0.0722. As to RRIRMRPPRLPRPRPRPPDWPRP, the “shrunken log2 fold change” value is 1.7. In the case of RRIRERPPRLPRPRPRPRIIPRP it was 0.0824. In the case of RRIRHRPPRLPRPRPRPPLFPRP it was 0.169; in that of RRIRSRPPRLPRPRPRPKTCPRP, -0.0741. Take RRIRQRPPRLPRPRPRPELGPRP: the “shrunken log2 fold change” value is 0.0387. Regarding RRIRVRPPRLPRPRPRPHAKPRP, the “shrunken log2 fold change” value was determined as 0.0066. As for RRIRRRPPRLPRPRPRPNFDPRP, the figure is -0.102; as for RRIRKRPPRLPRPRPRPMRSPRP, 0.638. As for RRIRGRPPRLPRPRPRPVGYPRP, the figure is 0.295.

As for RRIRPRPPRLPRPRPRPTMEPRP, the “shrunken log2 fold change” value amounted to 0.0735.

In the case of RRIRIRPPRLPRPRPRPRWPPRP, the “shrunken log2 fold change” value was found to be 0.379. RRIRDRPPRLPRPRPRPKWRPRP: the “shrunken log2 fold change” value came to 0.344. Turning to RRIRSRPPRLPRPRPRPDWMPRP, the “shrunken log2 fold change” value was 0.0892. In the case of RRIRKRPPRLPRPRPRPTREPRP, the “shrunken log2 fold change” value worked out at 0.48. RRIRRRPPRLPRPRPRPTFYPRP: the “shrunken log2 fold change” value was 0.191.

Take RRIRSRPPRLPRPRPRPYWWPRP: the “shrunken log2 fold change” value was -0.231. With RRIRERPPRLPRPRPRPYETPRP, the “shrunken log2 fold change” value was 0.0614. With RRIRFRPPRLPRPRPRPTVTPRP, the “shrunken log2 fold change” value was determined as 0.052.

Consider RRIRERPPRLPRPRPRPDLPPRP, for which the “shrunken log2 fold change” value was -0.156. Turning to RRIRMRPPRLPRPRPRPGFCPRP, the “shrunken log2 fold change” value is 0.442. As to RRIRTRPPRLPRPRPRPNRWPRP, the “shrunken log2 fold change” value is -0.0997. As for RRIRNRPPRLPRPRPRPHEFPRP, the “shrunken log2 fold change” value was -0.13. In the case of RRIRERPPRLPRPRPRPSQHPRP it was -0.49; in that of RRIRQRPPRLPRPRPRPEAQPRP, 0.285; in that of RRIRGRPPRLPRPRPRPFLYPRP, -0.11. Consider RRIRWRPPRLPRPRPRPMYQPRP, for which the “shrunken log2 fold change” value was -0.0254.

RRIRTRPPRLPRPRPRPLLHPRP: the “shrunken log2 fold change” value worked out at 0.0651.

In the case of RRIRCRPPRLPRPRPRPRWPPRP, the “shrunken log2 fold change” value came to 0.661. As for RRIRIRPPRLPRPRPRPLKMPRP, the figure is -0.245. In the case of RRIRHRPPRLPRPRPRPPENPRP it was 0.116. On to RRIRHRPPRLPRPRPRPPVFPRP, for which the “shrunken log2 fold change” value was 0.612. As for RRIRDRPPRLPRPRPRPGLMPRP, the figure is -0.152. With RRIRSRPPRLPRPRPRPYRMPRP, the “shrunken log2 fold change” value was -0.0162. As to RRIRERPPRLPRPRPRPEVCPRP, the “shrunken log2 fold change” value was -0.0484. Turning to RRIRHRPPRLPRPRPRPTHQPRP, the “shrunken log2 fold change” value was 0.243. In the case of RRIRHRPPRLPRPRPRPWQYPRP it was -0.17; in that of RRIRHRPPRLPRPRPRPHEQPRP, -0.0118; in that of RRIRFRPPRLPRPRPRPSTYPRP, -0.802.

Take RRIRPRPPRLPRPRPRPLNVPRP: the “shrunken log2 fold change” value was -0.448. For the sequence RRIRYRPPRLPRPRPRPIDTPRP, the “shrunken log2 fold change” value is -0.0431. As for RRIRPRPPRLPRPRPRPCMFPRP, the “shrunken log2 fold change” value is -0.577. Consider RRIRHRPPRLPRPRPRPHPGPRP, for which the “shrunken log2 fold change” value was -0.0998. As to RRIRVRPPRLPRPRPRPNDKPRP, the “shrunken log2 fold change” value is -0.351. In the case of RRIRIRPPRLPRPRPRPDCQPRP it was 0.000528; in that of RRIRPRPPRLPRPRPRPRSVPRP, 0.0746; in that of RRIRERPPRLPRPRPRPDGFPRP, -0.134. As for RRIRVRPPRLPRPRPRPHGPPRP, the figure is -0.156. As for RRIRFRPPRLPRPRPRPLAKPRP, the figure is 0.182; as for RRIRCRPPRLPRPRPRPDNFPRP, -0.489; as for RRIRFRPPRLPRPRPRPLRRPRP, 0.773. For RRIRSRPPRLPRPRPRPPLPPRP, the “shrunken log2 fold change” value is 0.688. As for RRIRKRPPRLPRPRPRPGEKPRP, the figure is 0.015; as for RRIRIRPPRLPRPRPRPHIAPRP, -0.957. In the case of RRIRMRPPRLPRPRPRPFFVPRP it was -0.0457; in that of RRIRPRPPRLPRPRPRPDPEPRP, 0.136; in that of RRIRYRPPRLPRPRPRPFDRPRP, -1.29.

With RRIRGRPPRLPRPRPRPGKNPRP, the “shrunken log2 fold change” value stood at 0.0656.

Turning to RRIRYRPPRLPRPRPRPSRYPRP, the “shrunken log2 fold change” value was -0.122. In the case of RRIRHRPPRLPRPRPRPKCMPRP it was -0.29.

RRIRNRPPRLPRPRPRPGHSPRP: the “shrunken log2 fold change” value is -0.152. As to RRIRGRPPRLPRPRPRPEVHPRP, the “shrunken log2 fold change” value worked out at 0.141.

With RRIRRRPPRLPRPRPRPMDVPRP, the “shrunken log2 fold change” value came to 0.0427. In the case of RRIRRRPPRLPRPRPRPEPPPRP it was 1.02; in that of RRIRIRPPRLPRPRPRPWNHPRP, 0.0112. As for RRIRRRPPRLPRPRPRPETAPRP, the figure is 0.658; as for RRIRYRPPRLPRPRPRPCFCPRP, -0.565.

Consider RRIRLRPPRLPRPRPRPWVRPRP, for which the “shrunken log2 fold change” value is -0.00819.

Take RRIRERPPRLPRPRPRPMFHPRP: the “shrunken log2 fold change” value is -0.897. Consider RRIRTRPPRLPRPRPRPMPCPRP, for which the “shrunken log2 fold change” value was 0.159. In the case of RRIRGRPPRLPRPRPRPVLMPRP, the “shrunken log2 fold change” value is 0.316. As for RRIRYRPPRLPRPRPRPLKRPRP, the “shrunken log2 fold change” value is -0.234. As for RRIRERPPRLPRPRPRPMSDPRP, the figure is -0.235; as for RRIRERPPRLPRPRPRPSATPRP, 0.0731.

As for RRIRRRPPRLPRPRPRPRWIPRP, the “shrunken log2 fold change” value stood at 0.356. In the case of RRIRLRPPRLPRPRPRPVQMPRP it was 3; in that of RRIRMRPPRLPRPRPRPYSTPRP, -0.137; in that of RRIRKRPPRLPRPRPRPCLCPRP, -0.138. RRIRTRPPRLPRPRPRPMKSPRP: the “shrunken log2 fold change” value is -0.203. Regarding RRIRNRPPRLPRPRPRPILYPRP, the “shrunken log2 fold change” value is -0.267. In the case of RRIRCRPPRLPRPRPRPGPMPRP, the “shrunken log2 fold change” value was found to be 0.326. On to RRIRMRPPRLPRPRPRPDAGPRP, for which the “shrunken log2 fold change” value was 1.12. As for RRIRPRPPRLPRPRPRPIEFPRP, the figure is -0.114; as for RRIRVRPPRLPRPRPRPNCHPRP, -0.201; as for RRIRFRPPRLPRPRPRPIYKPRP, -0.836.

As to RRIRKRPPRLPRPRPRPVPRPRP, the “shrunken log2 fold change” value turned out to be 0.72. As for RRIRVRPPRLPRPRPRPGTPPRP, the figure is -0.00585. As for RRIRTRPPRLPRPRPRPSVFPRP, the “shrunken log2 fold change” value is -0.337.

In the case of RRIRNRPPRLPRPRPRPIEVPRP, the “shrunken log2 fold change” value came to 0.0112. For RRIRKRPPRLPRPRPRPCRCPRP, the “shrunken log2 fold change” value turned out to be 0.0976. In the case of RRIRFRPPRLPRPRPRPMERPRP it was -0.208; in that of RRIRVRPPRLPRPRPRPAHVPRP, 0.0119.
